In patent US11434268B2, “Vascular endothelial growth factor antagonists” (The United States of America, as represented by the …, priority 2012, dated 2022):

Columns and labels:
293/KDR cells [1] = assay: KDR-driven tumorigenicity of 293/KDR transfectants implanted subcutaneously in mice; assay type: in vivo, SCID/Beige mice; settings: 3×10^6 transfected 293/KDR cells per animal, subcutaneous, FIG. 5D
Description: Additional control groups received the empty vector 293/KDR cells (3×10^6 per animal) or the empty vector cells combined with VEGF WT transfectants at 1.5×10^6 cells each. The latter group indicated the growth rate of tumors arising from 1.5×10^6 VEGF WT transfectants in the presence of “neutral” cells providing the same initial mass; a growth rate below this threshold in the group implanted with VEGF WT+VEGF 3S transfectants could be attributed to inhibition of VEGF WT-driven tumor growth by VEGF165 3S.
All experiments involving animals were performed in accordance with NIH Guidelines for Care and Use of Laboratory Animals using approved protocols. 293/KDR cells stably transfected with VEGF WT or 3S expression plasmids, or empty vector, were injected subcutaneously into SCID/Beige mice (Taconic, Inc.; 3×10^6 cells per animal total as indicated in the text, 5 mice/group) and tumor volumes were measured at regular intervals as described previously (Giubellino et al., 2007). Statistical analysis and curve fitting for all animal studies were performed using GraphPad Prism software version 5.0.
To test whether 3S VEGF could antagonize KDR-driven tumorigenicity in mice, groups of animals (n=5) were implanted subcutaneously with WT VEFG transfected 293/KDR cells (3×10^6 per animal), with the same number of 3S VEGF transfected cells, or with a suspension containing half the number of cells of each type. Additional control groups received the empty vector 293/KDR cells (3×10^6 per animal) or the empty vector cells combined with WT VEGF transfectants at 1.5×10^6 cells each. The latter group indicted the growth rate of tumors arising from 1.5×10^6 WT VEGF transfectants in the presence of “neutral” cells providing the same initial mass; a growth rate below this threshold in the group implanted with WT VEGF+3S VEGF transfectants could be attributed to inhibition by 3S VEGF. […]

293/KDR cells [2] = assay: Proliferation of stably transfected 293/KDR cell lines in culture; assay type: cell-based; settings: 293/KDR stable transfectants, days 3-5; p<0.001; FIG. 4E
Experimental: (§1) For proliferation assays, 293/KDR derived cell lines (5×10^4 cellsper well) were seeded in 6-well culture plates in quadruplicate. Cell number per well was measured after 2, 3, 4, and 5 days of growth by removing cells with trypsin, collecting via centrifugation and counting suspended cells in triplicate in a Cellometer Automatic Cell Counter (Nexcelom Bioscience, Lawrence, Mass.). Purified recombinant VEGF-A protein used as an external standard quantitation as VEGF mass per mass total extracted cell protein. KDR autophosphorylation in cell lysates was measured similarly; cultured cells were serum-deprived for 48 h, where noted cells were stimulated for 20 min with WT or 3S VEGF-A alone or in combination at the indicated concentrations, then extracted with ice cold buffer containing non-ionic detergent, protease and phosphatase inhibitors. Cleared extracts were applied to assay plates and processing per the manufacturer's instructions.
(§2) For proliferation assays, 293/KDR derived cell lines were seeded in 6-well culture plates in quadruplicate. Cell number per well was measured at regular intervals removal of adherent cells and counting in a Cellometer Automatic Cell Counter (Nexcelom Bioscience). Assays for colony formation in soft agar were performed as described (Castagnino et al., 2000).

293/KDR cells [3] = assay: Soft agar colony formation (anchorage independent growth) of 293/KDR cells; assay type: cell-based; settings: for soft agar colony formation by transfectants: 293/KDR cells stably transfected with expression plasmid, FIG. 4F; for inhibition of soft agar colony formation of 293/KDR cells stably transfected with VEGF165 WT: 3S protein at 0.06, 0.15 and 0.6 nM, pazopanib every other day at 0.3 and 3.0 nM over two weeks, FIG. 5C
Experimental: as §2
SoftAgar Colony Formation Assays for colony formation in soft agar (representative of anchorage independent growth) were performed and quantitated as described previously. Briefly, U87 MG cells and U87 MG cells transfected with a plasmid encoding NK1 60/62/73 were suspended in 0.5% Seaplaque agarose (1×10^5 cells) in growth medium in duplicate 60 mm dishes. Cell colonies were visualized after staining with p-iodotetrazolium violet by brightfield microscopy using an Olympus inverted microscope. Digital images were acquired and recorded using a CCD video camera and IP Lab software.

[4] = Heparin-Sepharose mediated clustering (covalent affinity crosslinking); assay type: binding; settings: conditioned media with Heparin Sepharose, BS3 crosslinking; FIG. 8
Experimental: These findings further support the mechanism of action of VEGF 3S as antagonism of HS binding to the VEGF/VEGFR complex leading to instability of ligand/receptor/HS complexes and consequent disruption of downstream signaling.
Covalent Affinity Crosslinking: Assays. […] Heparin Sepharose beads were used as both a source of heparin and to efficiently capture heparin-clustered VEGF from the conditioned media after crosslinking. Samples were then incubated with or without BS3 at room temperature for 1 h. After pelleting the beads by brief centrifugation, samples were obtained from the supernatants for SDS-PAGE and immunoblot analysis. The beads were then washed by five centrifugation/resuspension cycles in PBS, and bound proteins were eluted with boiling SDS-PAGE sample buffer. Supernatant and bead-captured samples were then resolved by SDS-PAGE under reducing conditions, transferred to PVDF and immunodetected with anti-VEGF antibody.

NRP1 = biological target: T1, NRP1 (Homo sapiens, UniProt O14786); assay: Covalent affinity crosslinking analysis of NRP1 binding; settings: NRP1-Fc, BS3 crosslinking, conditioned media; FIG. 10A
T1 construct: purchased Sino Biologics
T1 sequence (O14786 22-644 isoform O14786-2 limits assumed): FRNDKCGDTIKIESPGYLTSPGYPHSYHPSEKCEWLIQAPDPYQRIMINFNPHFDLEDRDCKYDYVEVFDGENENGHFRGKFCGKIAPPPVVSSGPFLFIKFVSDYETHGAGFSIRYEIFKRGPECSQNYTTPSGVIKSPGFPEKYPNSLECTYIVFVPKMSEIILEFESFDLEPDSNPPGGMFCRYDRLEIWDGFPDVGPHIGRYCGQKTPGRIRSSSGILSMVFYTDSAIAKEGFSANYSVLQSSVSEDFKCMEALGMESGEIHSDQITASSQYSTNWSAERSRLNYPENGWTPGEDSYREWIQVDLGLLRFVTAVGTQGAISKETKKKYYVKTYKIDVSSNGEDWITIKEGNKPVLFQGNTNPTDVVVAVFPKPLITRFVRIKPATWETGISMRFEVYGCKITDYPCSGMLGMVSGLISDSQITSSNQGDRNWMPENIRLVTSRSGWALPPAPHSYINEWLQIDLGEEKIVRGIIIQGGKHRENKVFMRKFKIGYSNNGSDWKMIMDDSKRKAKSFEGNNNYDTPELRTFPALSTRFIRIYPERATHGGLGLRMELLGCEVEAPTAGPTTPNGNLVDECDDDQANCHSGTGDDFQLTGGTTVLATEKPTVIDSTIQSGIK
Experimental: Purified recombinant NRP1-Fc (Sino Biologics) was added as indicated (−NRP1 or +NRP1) to 24 h conditioned media from vector transfected 293/KDR cells(left lanes), 293/KDR/VEGF 3S transfectants (middle lanes), or 293/KDR/VEGF WT transfectants (right lanes) in the absence (−) or presence (+) of the crosslinking reagent BS3 (Thermo Fisher Pierce). Samples were resolved by SDS-PAGE under reducing conditions, transferred to PVDF and immunodetected with anti-Fc antibody (top panel; Thermo Fisher Pierce) or anti-VEGF (lower panels; R&D Systems). A 160 kDa band, consistent with a 1:1 complex of NRP1-Fc and VEGF dimer, was detected by both antibodies specifically in the presence of NRP1-Fc in media from 293/KDR/VEGF 3S transfectants and 293/KDR/VEGF WT transfectants but not the vector control. […] Dimeric VEGF (44 kDa) is captured from both 293/KDR/VEGF 3S media and 293/KDR/VEGF WT media only in the presence of BS3 in the reducing SDS-PAGE conditions used.

KDR [5] = biological target: T2, KDR (Homo sapiens, UniProt P35968); assay: Antagonism of VEGF165 WT-stimulated KDR autophosphorylation in 293/KDR cells; assay type: cell-based; settings: VEGF165 10 ng/ml, serum-deprived 293/KDR cells; mock-immunodepleted conditioned media containing 2.5-fold molar excess VEGF 3S protein; FIG. 5B
T2 construct: host or cells: HEK293 (293/KDR)
T2 sequence (P35968 20-1356): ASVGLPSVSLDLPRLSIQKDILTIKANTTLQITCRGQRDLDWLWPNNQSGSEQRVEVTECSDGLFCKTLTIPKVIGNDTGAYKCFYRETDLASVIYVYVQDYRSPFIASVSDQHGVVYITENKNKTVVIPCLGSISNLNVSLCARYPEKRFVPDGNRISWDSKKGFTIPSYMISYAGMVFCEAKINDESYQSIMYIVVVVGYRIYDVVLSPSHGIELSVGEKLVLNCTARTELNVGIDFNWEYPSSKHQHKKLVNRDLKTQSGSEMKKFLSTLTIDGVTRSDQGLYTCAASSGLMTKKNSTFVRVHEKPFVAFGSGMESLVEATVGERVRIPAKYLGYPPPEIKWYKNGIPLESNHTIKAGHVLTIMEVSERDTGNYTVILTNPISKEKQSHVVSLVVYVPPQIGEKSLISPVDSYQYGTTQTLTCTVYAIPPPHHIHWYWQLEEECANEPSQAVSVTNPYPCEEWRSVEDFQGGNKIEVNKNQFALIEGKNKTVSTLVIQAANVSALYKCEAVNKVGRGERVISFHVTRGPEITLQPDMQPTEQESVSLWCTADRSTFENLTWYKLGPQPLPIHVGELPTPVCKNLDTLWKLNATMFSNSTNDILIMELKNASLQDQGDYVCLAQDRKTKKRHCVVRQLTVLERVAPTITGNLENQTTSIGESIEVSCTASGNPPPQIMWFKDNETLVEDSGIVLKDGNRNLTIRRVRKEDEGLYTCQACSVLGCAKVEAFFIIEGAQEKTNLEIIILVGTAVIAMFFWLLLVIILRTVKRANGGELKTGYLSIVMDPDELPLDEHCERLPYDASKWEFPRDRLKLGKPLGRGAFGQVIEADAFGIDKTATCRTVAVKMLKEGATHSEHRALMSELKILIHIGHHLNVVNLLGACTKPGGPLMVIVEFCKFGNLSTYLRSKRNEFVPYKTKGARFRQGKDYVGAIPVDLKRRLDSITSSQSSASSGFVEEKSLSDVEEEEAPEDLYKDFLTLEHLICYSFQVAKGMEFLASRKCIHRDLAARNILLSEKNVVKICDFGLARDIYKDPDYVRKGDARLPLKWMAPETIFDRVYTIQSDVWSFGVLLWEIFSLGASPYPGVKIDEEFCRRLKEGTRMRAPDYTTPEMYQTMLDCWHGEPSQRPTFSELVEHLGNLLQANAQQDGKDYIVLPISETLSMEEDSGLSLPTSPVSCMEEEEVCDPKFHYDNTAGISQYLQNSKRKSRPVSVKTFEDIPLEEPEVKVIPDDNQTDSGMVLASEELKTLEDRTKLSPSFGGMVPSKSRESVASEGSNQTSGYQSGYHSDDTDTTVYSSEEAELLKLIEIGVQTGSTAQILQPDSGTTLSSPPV
Experimental: FIG. 5B. […] The x-axis indicates the concentration of VEGF165 3S protein (ng/ml) in the conditioned media prior to immunodepletion.
as §1, with “Cleared extracts were applied to assay plates and processing per the manufacturer's instructions.” left out
Since the conditioned media could contain other inhibitors of KDR activation, VEGF165 3S was selectively removed from the media by immunodepletion with anti-VEGF antibody. A mock-immunodepletion was performed in parallel using a non-specific antibody and the VEGF165 3S content of the anti-VEGF and mock-immunodepleted media was measured (FIG. 5A). […]

[6] = tested on: Akt activation in EA.hy 926 cells, which express VEGFR1 and R2; assay: VEGF- or PlGF-induced Akt activation (phospho-Akt/total Akt) in EA.hy 926 cells; assay type: cell-based; settings: FIG. 9A
Experimental: VEGF 3s blocked Akt activation by VEGF-A (dark circles) or P1GF (squares).
(§3) Thus the pattern of VEGF 3S inhibition followed the pattern of VEGF-A binding to VEGFR1 and R2, but not homodimers of VEGFR3, as anticipated. […] VEGF 3s blocked Akt activation by VEGF-A (dark circles) or P1GF (squares). […] SCC-25 cells express all three VEGFRs.
(§4) Immunoassays: KDR and VEGF content in cell lysates, tissue extracts and conditioned media was determined using 2-site electrochemiluminescent immunoassays developed for use with the Meso Scale Discovery (MSD) SectorImager 2400 plate reader (Gaithersburg, Md.). KDR activation in cell lysates or tumor tissue extracts included parallel detection with anti-receptor antibodies and specific anti-phospho-receptor antibodies or 4G10 (Millipore). Cell lysates were prepared similarly for analysis of activated (phospho-) Akt, and total Akt using immunoassays from MSD. All measurements were made on triplicate samples. GraphPad Prism software version 5.0 was used for all statistical analyses: protein content values determined by 2-site immunoassay were interpolated from standard curves by nonlinear regression analysis (4 parameter logistic equation); saturation and competitive binding curves were fit after determination of specific binding and assuming a one site binding model.

KDR [7] = biological target: T2, KDR; assay: Basal KDR tyrosyl phosphorylation in stably transfected 293/KDR cells; assay type: cell-based; settings: 293/KDR stable transfectants after 24 h serum deprivation; FIG. 4D
Experimental: KDR autophosphorylation in cell lysates or tumor tissue extracts was measured similarly but included parallel detection with anti-receptor antibodies and specific anti-phospho-receptor antibodies or 4G10 (Millipore). […]
KDR tyrosyl phosphorylation in each cell line was measured after 24 h of serum deprivation (FIG. 4D). […]
Immunoassays: KDR and VEGF content in cell lysates, tissue extracts and conditioned media was determined using 2-site electrochemiluminescent immunoassays developed for use with the Meso Scale Discovery (MSD) SectorImager 2400 plate reader (Gaithersburg, Md.). […] GraphPad Prism software version 5.0 was used for all statistical analyses: protein content values determined by 2-site immunoassay were interpolated from standard curves by nonlinear regression analysis (4 parameter logistic equation); saturation and competitive binding curves were fit after determination of specific binding and assuming a one site binding model.

[8] = tested on: Akt activation in SCC-25 cells, which express VEGFR1, R2 and R3; assay: VEGF-A- or VEGF-D-induced Akt activation in SCC-25 cells; assay type: cell-based; settings: FIG. 9C
Experimental: SCC-25 cells express all three VEGFRs.
as §3, §4

VEGF165 WT: native mature human vascular endothelial growth factor A isoform of 165 amino acids
tumor formation by implanted transfectants (293/KDR cells [1]): formed tumors fastest | cell proliferation rate in culture (293/KDR cells [2]): grew significantly faster | soft agar colony formation by transfectants (293/KDR cells [3]): grew robustly | soft agar colony formation by transfectants (293/KDR cells [3]; listed as WT VEGF165): robust anchorage independent growth | heparin-promoted clustering (oligomerization) [4]: promoted clustering

B1: VEGF165 3S: human VEGF165 with opposite charge substitutions R123E/R124E/R159E in the mature protein (protein, listed as Homo sapiens)
chain: APMAEGGGQNHHEVVKFMDVYQRSYCHPIETLVDIFQEYPDEIEYIFKPSCVPLMRCGGCCNDEGLECVPTEESNITMQIMRIKPHQGQHIGEMSFLQHNKCECRPKKDRARQENPCGPCSEEEKHLFVQDPQTCKCSCKNTDSRCKARQLELNERTCECDKPRR
binding to NRP1 in vitro (NRP1): bound similarly | tumor formation by implanted transfectants (293/KDR cells [1]; listed as 3S VEGF): tumors grew most slowly | tumor formation by implanted transfectants (293/KDR cells [1]; listed as VEGF 3S): did not form tumors prior to study termination | inhibition of KDR autophosphorylation stimulated by purified VEGF165 protein (KDR [5]): > 80% | inhibition of soft agar colony formation of 293/KDR cells stably transfected with VEGF165 WT (293/KDR cells [3]): significant, dose-dependent inhibition | inhibition of soft agar colony formation of 293/KDR cells stably transfected with VEGF165 WT (293/KDR cells [3]; listed as 3S VEGF): substantial and dose-dependent inhibition | soft agar colony formation by transfectants (293/KDR cells [3]): grew modestly, if at all | inhibition of PlGF-induced Akt activation (phospho-Akt/total Akt) [6]: potency similar to pazopanib | inhibition of VEGF-A-induced Akt activation (phospho-Akt/total Akt) [6]: blocked | inhibition of PlGF-induced Akt activation (phospho-Akt/total Akt) ([6]; listed as VEGF 3s): blocked | basal KDR phosphorylation level compared with empty vector transfectants (KDR [7]): indistinguishable | antagonism of Akt activation by VEGF-A ([8]; VEGF-A at 100 pM): antagonism | block of Akt activation induced by VEGF-D ([8]; VEGF-D at 1000 pM): did not block
